Assay results as given in publication PMC12589307, “^1H, ^13C, and ^15N resonance assignment of the C terminal region of the disordered postsynaptic scaffold protein GKAP” (Biomolecular Nmr Assignments, 2025).
Where no end group is shown, it is not given here.

Target: T1, Shank1-PDZ (UniProt Q9WV48, residues 654-768) (UniProt Q9WV48 654-768)
T1 construct: Shank1 PDZ domain, UniProt Q9WV48, residues 654-768; 100% identical with the human homolog Q9Y566 residues 654-768; also called Shank-PDZ; source: production and purification by the protocol of Sánta et al. 2022
T1 sequence (looked up): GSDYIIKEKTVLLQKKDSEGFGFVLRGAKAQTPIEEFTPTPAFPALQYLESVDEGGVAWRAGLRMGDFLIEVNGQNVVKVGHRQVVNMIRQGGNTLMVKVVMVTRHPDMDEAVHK
Test: BLI; BLItz instrument, NTA biosensors; His-tagged GKAP-Ct43 immobilised as bait at 200 nM; Shank1-PDZ at 4, 2, 1 and 0.5 uM; 50 mM NaPi pH 7.4, 20 mM NaCl, 20 mM imidazole, 0.1% BSA, 0.02% Tween20; room temperature (no temperature control); global fit, average of three independent measurements
Conditions: both partners purified

Kd: 3.1 ± 0.7 µM
B1: GKAP-Ct43, C-terminal 43 residues of Rattus norvegicus GKAP, with 6xHis tag kept (domain or fragment)
chain: GSHMSSQRQEARKRLMAAKRAASVRQNSATESAESIEIYIPEAQTRL
modifications: also: 6xHis tag named, not in given chain
notes: vector-derived residues that remain N-terminal after TEV cleavage; in the uncleaved BLI construct they follow the 6xHis tag and the TEV site; Guanylate kinase-associated protein GKAP (rGKAP1a), Rattus norvegicus, UniProt P97836, residues 950-992; 100% identical to human DLGAP1 O14490 residues 935-977; Modified pET-15b vector with 6xHis tag and TEV site; also called rGKAP1a C-terminus; source: TEV …
